Source: article PMC4328751 (EMBO Reports, 2014)

Tests used:
yHsp70 [1] = biological target: T1, yHsp70 (yeast, UniProt P10591 1-642, 5-(and-6)-carboxyfluorescein coupled (in the analytical ultracentrifugation)); assay: AUC
yHsp90 = yHsp90 (yeast, UniProt P02829 1-709); assay: SPR
hHsp90 = hHsp90 (human, UniProt P08238 1-724); assay: SPR
yHsp70 [2] = biological target: T1, yHsp70; assay: SPR

T1 sequence (P10591 whole entry): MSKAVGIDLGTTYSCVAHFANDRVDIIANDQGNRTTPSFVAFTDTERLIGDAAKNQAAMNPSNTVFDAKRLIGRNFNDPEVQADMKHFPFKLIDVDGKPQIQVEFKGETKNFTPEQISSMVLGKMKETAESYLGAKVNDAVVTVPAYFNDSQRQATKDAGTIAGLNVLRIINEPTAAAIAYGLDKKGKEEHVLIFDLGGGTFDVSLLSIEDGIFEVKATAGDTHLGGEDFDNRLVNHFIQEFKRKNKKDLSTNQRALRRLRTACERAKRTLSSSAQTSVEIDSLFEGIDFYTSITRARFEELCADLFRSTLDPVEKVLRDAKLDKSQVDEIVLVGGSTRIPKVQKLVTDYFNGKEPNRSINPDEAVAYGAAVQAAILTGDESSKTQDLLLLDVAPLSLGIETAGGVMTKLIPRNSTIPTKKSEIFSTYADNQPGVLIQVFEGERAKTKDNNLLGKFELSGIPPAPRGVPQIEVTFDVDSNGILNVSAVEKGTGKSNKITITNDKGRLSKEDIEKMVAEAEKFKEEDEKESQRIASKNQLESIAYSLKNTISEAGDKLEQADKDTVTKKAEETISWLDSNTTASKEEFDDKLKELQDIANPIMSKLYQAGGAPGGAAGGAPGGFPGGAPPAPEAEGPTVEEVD
Chain of yHsp90 (P02829 whole entry): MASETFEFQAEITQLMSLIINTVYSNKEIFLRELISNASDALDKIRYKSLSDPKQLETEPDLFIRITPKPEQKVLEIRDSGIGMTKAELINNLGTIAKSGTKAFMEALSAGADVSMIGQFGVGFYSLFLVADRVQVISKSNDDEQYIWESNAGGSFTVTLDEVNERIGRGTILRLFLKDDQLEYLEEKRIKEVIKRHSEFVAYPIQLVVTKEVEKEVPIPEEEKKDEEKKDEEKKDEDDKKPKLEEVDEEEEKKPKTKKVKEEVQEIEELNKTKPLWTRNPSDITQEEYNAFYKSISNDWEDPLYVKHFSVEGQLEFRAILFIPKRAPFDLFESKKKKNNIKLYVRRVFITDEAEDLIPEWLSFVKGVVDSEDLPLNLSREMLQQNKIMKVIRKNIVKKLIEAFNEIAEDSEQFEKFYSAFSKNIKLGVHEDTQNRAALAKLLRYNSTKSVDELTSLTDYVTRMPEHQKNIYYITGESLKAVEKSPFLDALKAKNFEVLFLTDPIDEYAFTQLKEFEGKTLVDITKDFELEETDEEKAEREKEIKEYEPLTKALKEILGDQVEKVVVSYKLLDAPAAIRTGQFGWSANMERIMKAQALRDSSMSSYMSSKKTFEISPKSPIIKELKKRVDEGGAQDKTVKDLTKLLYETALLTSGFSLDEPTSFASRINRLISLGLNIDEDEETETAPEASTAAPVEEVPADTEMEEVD
Chain of hHsp90 (P08238 whole entry): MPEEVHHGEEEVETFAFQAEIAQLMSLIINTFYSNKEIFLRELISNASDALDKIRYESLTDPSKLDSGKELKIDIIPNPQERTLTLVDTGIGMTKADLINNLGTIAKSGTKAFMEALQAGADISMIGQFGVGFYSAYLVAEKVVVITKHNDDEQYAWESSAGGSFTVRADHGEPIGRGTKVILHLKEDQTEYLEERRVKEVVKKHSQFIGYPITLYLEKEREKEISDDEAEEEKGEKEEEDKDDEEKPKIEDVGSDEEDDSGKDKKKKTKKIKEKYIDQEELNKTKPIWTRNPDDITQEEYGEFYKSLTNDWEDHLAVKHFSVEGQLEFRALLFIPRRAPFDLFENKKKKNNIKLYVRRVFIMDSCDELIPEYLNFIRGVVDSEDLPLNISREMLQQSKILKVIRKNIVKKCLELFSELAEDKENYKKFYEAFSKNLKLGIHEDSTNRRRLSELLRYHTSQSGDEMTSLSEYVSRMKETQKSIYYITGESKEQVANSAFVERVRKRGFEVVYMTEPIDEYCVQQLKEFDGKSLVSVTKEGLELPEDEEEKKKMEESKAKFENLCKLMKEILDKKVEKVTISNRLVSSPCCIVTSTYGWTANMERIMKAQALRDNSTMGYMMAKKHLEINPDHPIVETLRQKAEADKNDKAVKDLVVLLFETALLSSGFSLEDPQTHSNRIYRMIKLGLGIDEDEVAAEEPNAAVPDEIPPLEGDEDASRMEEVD

B1: Sti1 (natural protein)
chain: MSLTADEYKQQGNAAFTAKDYDKAIELFTKAIEVSETPNHVLYSNRSACYTSLKKFSDALNDANECVKINPSWSKGYNRLGAAHLGLGDLDEAESNYKKALELDASNKAAKEGLDQVHRTQQARQAQPDLGLTQLFADPNLIENLKKNPKTSEMMKDPQLVAKLIGYKQNPQAIGQDLFTDPRLMTIMATLMGVDLNMDDINQSNSMPKEPETSKSTEQKKDAEPQSDSTTSKENSSKAPQKEESKESEPMEVDEDDSKIEADKEKAEGNKFYKARQFDEAIEHYNKAWELHKDITYLNNRAAAEYEKGEYETAISTLNDAVEQGREMRADYKVISKSFARIGNAYHKLGDLKKTIEYYQKSLTEHRTADILTKLRNAEKELKKAEAEAYVNPEKAEEARLEGKEYFTKSDWPNAVKAYTEMIKRAPEDARGYSNRAAALAKLMSFPEAIADCNKAIEKDPNFVRAYIRKATAQIAVKEYASALETLDAARTKDAEVNNGSSAREIDQLYYKASQQRFQPGTSNETPEETYQRAMKDPEVAAIMQDPVMQSILQQAQQNPAALQEHMKNPEVFKKIQTLIAAGIIRTGR
yHsp70 [1]
  binding result: binds
yHsp90
  fold stronger binding than to hHsp90: ~2 fold
hHsp90
  binding result: binds

B2: Sti1 S410E (natural protein)
chain: MSLTADEYKQQGNAAFTAKDYDKAIELFTKAIEVSETPNHVLYSNRSACYTSLKKFSDALNDANECVKINPSWSKGYNRLGAAHLGLGDLDEAESNYKKALELDASNKAAKEGLDQVHRTQQARQAQPDLGLTQLFADPNLIENLKKNPKTSEMMKDPQLVAKLIGYKQNPQAIGQDLFTDPRLMTIMATLMGVDLNMDDINQSNSMPKEPETSKSTEQKKDAEPQSDSTTSKENSSKAPQKEESKESEPMEVDEDDSKIEADKEKAEGNKFYKARQFDEAIEHYNKAWELHKDITYLNNRAAAEYEKGEYETAISTLNDAVEQGREMRADYKVISKSFARIGNAYHKLGDLKKTIEYYQKSLTEHRTADILTKLRNAEKELKKAEAEAYVNPEKAEEARLEGKEYFTKEDWPNAVKAYTEMIKRAPEDARGYSNRAAALAKLMSFPEAIADCNKAIEKDPNFVRAYIRKATAQIAVKEYASALETLDAARTKDAEVNNGSSAREIDQLYYKASQQRFQPGTSNETPEETYQRAMKDPEVAAIMQDPVMQSILQQAQQNPAALQEHMKNPEVFKKIQTLIAAGIIRTGR
yHsp70 [2]
  fold increase in KD against the wild type: ~2 fold

B3: Sti1 S258E (natural protein)
chain: MSLTADEYKQQGNAAFTAKDYDKAIELFTKAIEVSETPNHVLYSNRSACYTSLKKFSDALNDANECVKINPSWSKGYNRLGAAHLGLGDLDEAESNYKKALELDASNKAAKEGLDQVHRTQQARQAQPDLGLTQLFADPNLIENLKKNPKTSEMMKDPQLVAKLIGYKQNPQAIGQDLFTDPRLMTIMATLMGVDLNMDDINQSNSMPKEPETSKSTEQKKDAEPQSDSTTSKENSSKAPQKEESKESEPMEVDEDDEKIEADKEKAEGNKFYKARQFDEAIEHYNKAWELHKDITYLNNRAAAEYEKGEYETAISTLNDAVEQGREMRADYKVISKSFARIGNAYHKLGDLKKTIEYYQKSLTEHRTADILTKLRNAEKELKKAEAEAYVNPEKAEEARLEGKEYFTKSDWPNAVKAYTEMIKRAPEDARGYSNRAAALAKLMSFPEAIADCNKAIEKDPNFVRAYIRKATAQIAVKEYASALETLDAARTKDAEVNNGSSAREIDQLYYKASQQRFQPGTSNETPEETYQRAMKDPEVAAIMQDPVMQSILQQAQQNPAALQEHMKNPEVFKKIQTLIAAGIIRTGR
yHsp70 [2]
  binding result: binds

B4: Sti1 T37E (natural protein)
chain: MSLTADEYKQQGNAAFTAKDYDKAIELFTKAIEVSEEPNHVLYSNRSACYTSLKKFSDALNDANECVKINPSWSKGYNRLGAAHLGLGDLDEAESNYKKALELDASNKAAKEGLDQVHRTQQARQAQPDLGLTQLFADPNLIENLKKNPKTSEMMKDPQLVAKLIGYKQNPQAIGQDLFTDPRLMTIMATLMGVDLNMDDINQSNSMPKEPETSKSTEQKKDAEPQSDSTTSKENSSKAPQKEESKESEPMEVDEDDSKIEADKEKAEGNKFYKARQFDEAIEHYNKAWELHKDITYLNNRAAAEYEKGEYETAISTLNDAVEQGREMRADYKVISKSFARIGNAYHKLGDLKKTIEYYQKSLTEHRTADILTKLRNAEKELKKAEAEAYVNPEKAEEARLEGKEYFTKSDWPNAVKAYTEMIKRAPEDARGYSNRAAALAKLMSFPEAIADCNKAIEKDPNFVRAYIRKATAQIAVKEYASALETLDAARTKDAEVNNGSSAREIDQLYYKASQQRFQPGTSNETPEETYQRAMKDPEVAAIMQDPVMQSILQQAQQNPAALQEHMKNPEVFKKIQTLIAAGIIRTGR
yHsp70 [2]
  binding result: binds

B5: Sti1 S95E (natural protein)
chain: MSLTADEYKQQGNAAFTAKDYDKAIELFTKAIEVSETPNHVLYSNRSACYTSLKKFSDALNDANECVKINPSWSKGYNRLGAAHLGLGDLDEAEENYKKALELDASNKAAKEGLDQVHRTQQARQAQPDLGLTQLFADPNLIENLKKNPKTSEMMKDPQLVAKLIGYKQNPQAIGQDLFTDPRLMTIMATLMGVDLNMDDINQSNSMPKEPETSKSTEQKKDAEPQSDSTTSKENSSKAPQKEESKESEPMEVDEDDSKIEADKEKAEGNKFYKARQFDEAIEHYNKAWELHKDITYLNNRAAAEYEKGEYETAISTLNDAVEQGREMRADYKVISKSFARIGNAYHKLGDLKKTIEYYQKSLTEHRTADILTKLRNAEKELKKAEAEAYVNPEKAEEARLEGKEYFTKSDWPNAVKAYTEMIKRAPEDARGYSNRAAALAKLMSFPEAIADCNKAIEKDPNFVRAYIRKATAQIAVKEYASALETLDAARTKDAEVNNGSSAREIDQLYYKASQQRFQPGTSNETPEETYQRAMKDPEVAAIMQDPVMQSILQQAQQNPAALQEHMKNPEVFKKIQTLIAAGIIRTGR
yHsp70 [1]
  binding result: binds

B6: Sti1 S227E (natural protein)
chain: MSLTADEYKQQGNAAFTAKDYDKAIELFTKAIEVSETPNHVLYSNRSACYTSLKKFSDALNDANECVKINPSWSKGYNRLGAAHLGLGDLDEAESNYKKALELDASNKAAKEGLDQVHRTQQARQAQPDLGLTQLFADPNLIENLKKNPKTSEMMKDPQLVAKLIGYKQNPQAIGQDLFTDPRLMTIMATLMGVDLNMDDINQSNSMPKEPETSKSTEQKKDAEPQEDSTTSKENSSKAPQKEESKESEPMEVDEDDSKIEADKEKAEGNKFYKARQFDEAIEHYNKAWELHKDITYLNNRAAAEYEKGEYETAISTLNDAVEQGREMRADYKVISKSFARIGNAYHKLGDLKKTIEYYQKSLTEHRTADILTKLRNAEKELKKAEAEAYVNPEKAEEARLEGKEYFTKSDWPNAVKAYTEMIKRAPEDARGYSNRAAALAKLMSFPEAIADCNKAIEKDPNFVRAYIRKATAQIAVKEYASALETLDAARTKDAEVNNGSSAREIDQLYYKASQQRFQPGTSNETPEETYQRAMKDPEVAAIMQDPVMQSILQQAQQNPAALQEHMKNPEVFKKIQTLIAAGIIRTGR
yHsp70 [2]
  binding result: binds

B7: Hop S16E (natural protein)
chain: not shown
yHsp70 [2]
  binding result: binds

B8: Hop Y354E (natural protein)
chain: not shown
yHsp70 [2]
  fold increase in KD against the wild type: ~2 fold
